Assay results reported in the DeepSol protein solubility set.

Assay: soluble on expression in E. coli; label from the status in PepcDB or PDB records

| Sequence | soluble on expression in E. coli |
| --- | --- |
| MGSDKIHHHHHHMMTISNGNLRVDLRLIADMVEPGSRVLDVGCGEGALLDWLGRTKNVDGRGIELSMAGVSAAVSHGLSVIQGDADTDLKDYPSGAFDYVILSQTLQATYAPRTVLSNMLRIGRRAIVSFPNFGHWRVRLHLLTHGRMPVTDTLAYEWYDTPNIHFCTIRDFLDLCRDLGIRVERSIPLDRSGRTMAIPSCEGIANLFADQGLFVLSREG | not soluble |
| MAKNSKFDRVQVVDKAVDLYWEKGFHGTSMRNLQEVIDMRPGSIYATFGSKEGLFKESLQRYTQSGILHLEQCCHEQKSPLLGLKSFIHNIVVEKRSSAPSGMCMLVKTVTELTNENEELLTEAKRSLKIMESEFEKVLRQAQEIGEIEKEKDTKQLAQFVQVQIAGLRTYARTVDSDLPLQNMLDNMFSHYPF | not soluble |
| MGSDKIHHHHHHMVMNRSSLDGFFDPSYLENILGNFTQATGLRIEAVNYRGETFSIPGSLDRSPFCQCIRNNPQGNKRCIDSYKRATSEAVKWDEPYFFRCHAGLVIWAVPILSKDITLGSIICGQVLLWKPDRFFIQELQDISKGLKIDPEELNQAVPNLSIISADQAQAAANLLFVVVSHILKNNLRALEEEKAYKVLQQQLHDQILKRKKGPRRTDISYESILKDERRFLQYIRLGDKSRAFATLENLIIKIYTKSTGEPQLAKDRIVELAALTSRAAVEGGSDAEQAVTILSSFYKKLENMERVEEIIYFIKQIVDEFLENIFILADKKHLSLVKDARSFILHNHAQPLTIADAAQHLFISPSHLSRLFRQQLDCTFNDYLTRVRVEKAVELLKKPEFSVKDVALAVGFQNQSHFAKVFRKYIGVTPLVYRNSLF | not soluble |
| MAHHHHHHMGKFVAEQYLRRGVSVTVLARDIAKAKSLFLPIADGQREQNRLASMGYRQLSSAAEKREMTASLHYRDFRRGDRHVLRYEFRNPRSVGGPSAGSANASCDQRFALELVEGDVGSTQDLEFSMRHASIVFYLTAALEEASGPALRADDRLRSSAAWWSLGSWFCGGRRFGGFLHALDACRRVDAHFVALTPLWVHGSCLSPFYWYRRLLTHPRGYCKAVQLQEQTLLSQSGSPGARCSLGADELEARQPGGDWGCWWRSRLSTEPPDDILIKSRSPVRFSLFRLSDVVFPSFNERIVASKNNRVDDDLHVTFIQQGDLDARLLANVLVKSIGLCNSVVESRIDIGGSLRGGTDMRDANAIFDLFEQLRNE | not soluble |
| GSHMDKTFCVVVQNRIKEGYRRAGFSFHLGDNSLAAVSESQLAQLKADPRLVVQITETGSQEGGEGLSKEPAGSDEQKQLRADPPSTDLNTFTVEQLKAQLTERGITFKQSATKAELIALFAPADGEKSEA | soluble |
| MGSDKIHHHHHHMSQHETPLYTGLKKHASRQPVQFHIPGHKKGAGMDPEFRQFIGENALSIDLINIEPLDDLHAPKGIIKQAQDLAAEAFGADHTFFSVQGTSGAIMTMVMAVCGPGDKIIIPRNVHKSIMTAIVFSGAVPIFIHPEIDNELGISHGITLESAKRALTEHPDAKGLLVINPTYFGVAADLKSIVELAHSFDVPVLVDEAHGVHIHFHDELPLSAMQAGADIAATSVHKLGGSLTQSSILNMREGLVSKDRVQSILSMLTTTSTSYLLLASLDVARKRLATEGRQLAEETLKLANQTRDRLNQIEGIYCVGSEILGSKAAYSYDPTKLIISVKSLGLTGHDVEKWLRESFNIEVELSDLYNILCIFTPGDSQNDADRLVEALTEIAQQMSEQDVTHQQTEVLLPEIPLLAMTPRDAFYANTEVIPLKEASGRIIAEFVMVYPPGIPIFIPGEIITEENISYIFKNLDAGLPVQGPEDSTLHMIRVIKEQKAIQ | not soluble |
| MAHHHHHHMVTVPKLQAMREAGEKIAMLTSYDASFAALLDRANVDVQLIGDSLGNVLQGQATTLPVTLDDIAYHTACVARAQPRGLVVADLPFGTYGTPADAFASAVKLMRAGAQMVKLEGGEWLAETVRFLVERAVPVCAHVGLTPQSVHAFGGFKVQGKTEAGAAQLLRDARAVEEAGAQLIVLEAVPTLVAAEVTRELSIPTIGIGAGAECSGQVLVLHDMLGVFPGKRPRFVKDFMQGQPSIFAAVEAYVRAVKDGSFPGPEHSF | soluble |
| MGSDKIHHHHHHMDIIDYLPQKMKAEAEAYMPCGLEEIRVRAGKQVQYMFAGGCRAGVYISHSDIEEMINYLSGYSFHAIAPQLAAGYFTVEGGHRVGIAGQMGCDGGKVTAVSEIASLNIRIAHQIRDVAMPLMPYIRDENSIYNTLVISRPGEGKTTFLRDCIRILSDGCDGKNALKVSVVDERSEIAACYLGVAQNDIGNSSDVLDNCPKSLGMRMLLRSMSPDVIAVDELGGEGDIEALNQLVSCGIRILGSVHGTNADDLRRKILPHAIERFVFIDHDEKGVRRYSIYDEAYRLLYSTVCGIGADKRLQQKKKGRYSDAV | not soluble |
| MNEKYEAVIGLEIHVQMDTKTKMFCGCKVEFGAEPNTNVCPVCLGMPGALPIVNKRAVEYAIRASLALNCEVHEESVFARKHYFYPDLPKGYQISQYEKPLATNGWVELNLPNGEKKKVRIRRLHIEEDAGKNIHEGDKTLVDLNRAGTPLMEIVTEPDIRTPEEARLFLEKLRNIMRYAGVSKADMEKGQLRCDINVSIRPKGSKEFGTRVEIKNVNSFRFVQKALEYEIERQINVVEEGGEVVQETRTFDPQTGKTYPMRTKEEAEDYRYFPDPDLVPLKVKKEWIEEIKKNMPELPDQRFERLIKEYGLSEYEAGILVNHKEVGDFFEEAVRHFKEPKGIVNWLINDLLGLLRDKGISIEESPVKPEHLAELVKLIKEKVISTKIGKEVIKEMVETGKTPSQIVEEKGLKQITDENQIKELVKKIFEKHPKEVERLKQGEEKLIGFFVGQVMRETRGKANPQVVNKVIRELVKEV | soluble |
| MHVIDLSYFVKIYRSKNKHISVNFLRHLHRAGDLHLSGTTRCIYEDVIMKKCLTLLIATVLSGISLTAYAAQPMSNLDSGQLRPAGTVSATGASNLSDLEDKLAEKAREQGAKGYVINSAGGNDQMFGTATIYK | soluble |
| MTWPAFSLGVWGYPERMDPRVPPGQFVTERFPILTYGETPKVAKEAWRLEVTGLVETPLVLTYEDLLARPQVELTRDFHCVTRWSRLDVTWKGVRTRDLLEEARPRPEAVAALVESYGGYTTNLLLEDLLREDVLLAHTLFGKPLPPERGGPVRLLVPHLYAWKSAKWVRRIVLLDHLELGFWERLGYHWRGDPWKEERFQEGPVPAHRIRFAARNKPGR | soluble |
| MSLKSADSATQQYLKEKHEEYLSLQHGLQRREETLLATVNQIVVNQHAFLLHQAALAPLLLRDVAKALQVNESTVSRTIKGKHLQTDLGIFAFKDFFSKRTQAVSSSAYHSVDQLKFTMMQLIQSENKMCPASDNLLVKWLYEKGFKVARRTVTKYRNELGLPAASARKSREGHHHHHH | soluble |
| AAKEEADSRISPGNIFEEKAKFLVMMESSIYAAKRGDALIAQILILAGRLSKNEAPKEALLFMEKTITGEIDLSVAKNLLIAYMRIRREEKQRDLNSVKNDDAIPSDINIDDLTNT | not soluble |
| TDPGAEELPARIFVALFDYDPLTMSPNPDAAEEELPFKEGQIIKVYGDKDADGFYRGETCARLGLIPCNMVSEIQADDEEMMDQ | soluble |
| MRSMKVFISIGVVLSVVNCIFFDHGDSSDGSYSDSSGEGRGHHHKHGPRPPRPNRPPRPPPATPPPTTPAPSCPGGWSLIHRRRGPWCIQVFNGAAGLEGSNNACRAQGAVLSSVENAQERETIARLGLEKMLPTGWKYGTIRVGLRKNSQGAPWYNTDGSTDANNLEGVLWSPAEPRNGNWGGVQLNCATMWLWGGIFEGGRIHGQFFTNICLANNPNDRYRGYVCGKPA | not soluble |
| MSLDNQLRPTLHYQAQNPHRRVLVTGATGYIGGRLITELLAAGFQVRATSRKKTSLQRFDWYEDVEAVEADLTDATELDTLFKDVDVVYYLVHSMGGKNVDFEEQEQRTAENVIQAADQAGIKQIVYLSGLHPRNRKIEELSKHMRSREKVAQILLAGQTPALILRAATIIGSGSASFEIIRHLTERLPRMIAPQWITNQIEPLAIRDVLHYLISAADLKDPVNRSCDIGCGKSYEFADLLRIYADVRGLKRHVNSVPLNLPMDKLSGLWISLVTPVPFQLSFPLAQSMAEDAVTEEHSIKDIISDPPDGFIEYREAVELALAAEFDRGVPTSWDRSWTVQQPWAGQPTDPEWAGKAVYEDVRTEDTDLRAAQVWPIIEGLGGVNGWYSAPLLWRLRGIADRLIGGPGLGGRRDPRHLKLGDRIDWWRVTEIDPPHRLVLTAEMKVDGGAWLILEVADKENGGCTYTQRAIFEPKGEGHHHHHH | soluble |
| ATDATSLATDKDKLSYSIGADLGKNFKNQGIDVNPEAMAKGMQDAMSGAQLALTEQQMKDVLNKFQKDLMAKRTAEFNKKADENKVKGEAFLTENKNKPGVVVLPSGLQYKVINSGNGVKPGKSDTVTVEYTGRLIDGTVFDSTEKTGKPATFQVSQVIPGWTEALQLMPAGSTWEIYVPSGLAYGPRSVGGPIGPNETLIFKIHLISVKKSS | soluble |
| MNQQTVNVIGAGLAGSEAAWQLAKRGIQVKLYEMRPVKQTPAHHTDKFAELVCSNSLRSNTLANAVGVLKEEMRALDSAIIAAADECSVPAGGALAVDRHEFAASVTNRVKNHPNVTVINEEVTEIPEGPTIIATGPLTSESLSAQLKELTGEDYLYFYDAAAPIVEKDSLDMDKVYLKSRYDKGEAAYLNCPMTEEEFDRFHEALTSAETVPLKEFEKEIFFEGCMPIEVMAKRGKKTMLFGPMKPVGLEHPVTGKRPYAVVQLRQDDAAGTLYNIVGFQTHLKWGDQKEVLKLIPGLENVEIVRYGVMHRNTFINSPSLLKPTYQFKNRSDLFFAGQMTGVEGYVESAASGLVAGINAAKLVLGEELVIFPQETAIGSMAHYITTTNQKNFQPMNANFGLLKELPVKIKNKKERNEQYANRAIETIQTISKTILEHHHHHH | soluble |
| MSNVVVCALYKFVSLPHFESLREPLLSMMEQAEIKGTLLLASEGINGTVAGNQAAIDALLIWLNQQNGLENITYKLSFDDEMPFYRTKVKLKKEIVTMGVEGIDPLKVVGTYVKPKDWNALISDPEVVLVDTRNDYEVQIGTFKNAINPVTETFREFPEYVKQNLDPAKHKKVAMFCTGGIRCEKSTAYLKEQGFEEVYHLEGGILKYLEEVNKAESLWEGECFVFDNRVAVDHDLKKGQYDQCNACRMPITEAEKLTPDYVQGVSCPHCIDKISEEQRKRFVERERQVNLAKSRNEAHIGSDVNHVIEARRQKKEALRKQSAEKNKAKQANALEHHHHHH | soluble |
| KFRTMRQNLQEASDVLDDQIESFTKIIQNHYKLSPNDFADPTIQSQSEIYAVGRIVPDSPTYDKFLNPESLSLETSRMGGVGRRVRLDLSQVNELSFFLGQIVAFKGKNANGDYFTVNSILPLPYPNSPVSTSQELQEFQANLEGSSLKVIVTCGPYFANDNFSLELLQEFIDSINNEVKPHVLIMFGPFIDITHPLIASGKLPNFPQFKTQPKTLDELFLKLFTPILKTISPHIQTVLIPSTKDAISNHAAYPQASLIRKALQLPKRNFKCMANPSSFQINEIYFGCSNVDTFKDLKEVIKGGTTSSRYRLDRVSEHILQQRRYYPIFPGSIRTRIKPKDVSTKKETNDMESKEEKVYEHISGADLDVSYLGLTEFVGGFSPDIMIIPSELQHFARVVQNVVVINPGRFIRATGNRGSYAQITVQCPDLEDGKLTLVEGEEPVYLHNVWKRARVDLIAS | soluble |
